The values below come from patent US20220332795A1 (ARO BIOTHERAPEUTICS, published 2022).

First the molecules themselves.
B1: SEQ ID NO 225 (designed binder, not shown: small tags and cut ends)
chain: MLPAPKNLVVSRVTEDSARLSWTAPDAAFDSFYIAYAEPRPDGEAILLQVPGSERSYDLTGLKPGTEYSVLIHGVKGGLLSSPLSASFTT
B2: SEQ ID NO 215 (designed binder, not shown: small tags and cut ends)
chain: B1 chain with L47V, Q49W, S85I, S87E
B3: SEQ ID NO 206 (designed binder, not shown: small tags and cut ends)
chain: B1 chain with L47G, Q49D, S87I
B4: SEQ ID NO 214 (designed binder, not shown: small tags and cut ends)
chain: B1 chain with L47G, S85C, S87E
B5: SEQ ID NO 212 (designed binder, not shown: small tags and cut ends)
chain: B1 chain with L47W, Q49A, S85H, S87Q
B6: SEQ ID NO 211 (designed binder, not shown: small tags and cut ends)
chain: B1 chain with L47Q, Q49H, S85V, S87I
B7: SEQ ID NO 227 (designed binder, not shown: small tags and cut ends)
chain: B1 chain with L47G, Q49R, S87I
B8: SEQ ID NO 218 (designed binder, not shown: small tags and cut ends)
chain: B1 chain with L47H, Q49V, S87I
B9: SEQ ID NO 209 (designed binder, not shown: small tags and cut ends)
chain: B1 chain with E54C, S85T, S87I
notes: also called ABX1198
B10: SEQ ID NO 207 (designed binder, not shown: small tags and cut ends)
chain: B1 chain with L47H, Q49S, S85A, S87Y
B11: SEQ ID NO 219 (designed binder, not shown: small tags and cut ends)
chain: B1 chain with L47S, Q49K, S85E, S87I
B12: SEQ ID NO 228 (designed binder, not shown: small tags and cut ends)
chain: B1 chain with L47V, Q49R, S85A
B13: SEQ ID NO 224 (designed binder, not shown: small tags and cut ends)
chain: B1 chain with Q49R, S85V, S87E
B14: SEQ ID NO 226 (designed binder, not shown: small tags and cut ends)
chain: B1 chain with L47G, Q49H, S85T
B15: SEQ ID NO 217 (designed binder, not shown: small tags and cut ends)
chain: B1 chain with L47I, Q49E, S85R, S87V
B16: SEQ ID NO 241 (designed binder, not shown: small tags and cut ends)
chain: MLPAPKNLVVSRVTEDSARLSWTAPDAAFDSFFIGYLEPQPPGEAIHLGVPGSERSYDLTGLKPGTEYNVTIQGVKGGFPSIPLFASFTT
B17: SEQ ID NO 98 (designed binder, not shown: small tags and cut ends)
chain: MLPAPKNLVVSRVTEDSARLSWTAPDAAFDSFGIAYDEWPEFGEAIVLTVPGSERSYDLTGLKPDTEYIVEIYGVKGGWFSWPLSAIFTT
notes: FN3 domain, hit of the apical domain panning
B18: SEQ ID NO 35 (designed binder, not shown: small tags and cut ends)
chain: MLPAPKNLVVSRVTEDSARLSWTAPDAAFDSFPISYIESIADGEAIVLTVPGSERSYDLTGLKPGTEYWVAIVGVKGGPFSWSLSAIVTT
notes: as for B17
B19: SEQ ID NO 23 (designed binder, not shown: small tags and cut ends)
chain: MLPAPKNLVVSRVTEDSARLSWTAPDAAFDSFAIWYHEWYGDGEAIVLTVPGSERSYDLTGPKPGTEYRVRISGVKGGFESGPLSAIFTT
notes: as for B17
B20: SEQ ID NO 21 (designed binder, not shown: small tags and cut ends)
chain: MLPAPKNLVVSRVTEDSARLSWTAPDAAFDSFSIRYNEFIVAGEAIVLTVPGSERSYDLTGLKPGTEYDVPIAGVKGGGASWPLSAIVTT
notes: as for B17
B21: SEQ ID NO 97 (designed binder, not shown: small tags and cut ends)
chain: MLPAPKNLVVSRVTEDSARLSWTAPDAAFDSFHIWYEEETTIGEAIYLHVPGSERSYDLTGLKPGTEYEVHITGVKGGPYSRPLFANFTT
notes: as for B17
B22: SEQ ID NO 16 (designed binder, not shown: small tags and cut ends)
chain: MLPAPKNLVVSRVTEDSARLSWTAPDAAFDSFGIAYREFRPSGEAIVLTVPGSERSYDLTVETGYRNEVVICGVKGGPWSGPLSAIFTT
notes: as for B17
B23: SEQ ID NO 31 (designed binder, not shown: small tags and cut ends)
chain: MLPAPKNLVVSRVTEDSARLSWTAPDAAFDSFTIEYSEHPIDGEAIPLFVPGSERSYDLTGLKPGTEYYVRIHGVKGGWFSHPLWAFFTT
notes: as for B17
B24: SEQ ID NO 24 (designed binder, not shown: small tags and cut ends)
chain: MLPAPKNLVVSRVTEDSARLSWTAPDAAFDSFMIRYQEGTRWGEAIVLTVPGSERSYDLTGLKPGTEYIVMIAGVKGGQISLPLSAIFTT
notes: as for B17
B25: SEQ ID NO 100 (designed binder, not shown: small tags and cut ends)
chain: MLPAPKNLVVSRVTEDSARLSWTAPDAAFDSFYIWYEEVMYLGEAIVLTVPGSERSYDLTGLKPGTEYNVPIPGVKGGHSSPPLSAIFTT
notes: as for B17
B26: SEQ ID NO 25 (designed binder, not shown: small tags and cut ends)
chain: B25 chain with Y33P, E37L, V39K, M40S, L42Q, N69V, P73I, H79R, S80D, P82C
notes: as for B17
B27: SEQ ID NO 2 (designed binder, not shown: small tags and cut ends)
chain: MLPAPKNLVVSEVTEDSARLSWQGVARAFDSFMINYSELFWMGEAIVLTVPGSERSYDLTGLKPGTEYVVRIKGVKGGKGSWPLHAHFTT
notes: as for B17
B28: SEQ ID NO 20 (designed binder, not shown: small tags and cut ends)
chain: MLPAPKNLVVARVTEDSARLSWTAPDAAIDSFPIDYSEYWWGGEAIVLTVPGSERSYDLTGLKPGTEYPVLITGVKGGYRSGPLSAIFTT
notes: as for B17
B29: SEQ ID NO 22 (designed binder, not shown: small tags and cut ends)
chain: MLPAPKNLVVSRVTEDSARLSWTAPDAAFDSFWYLELQFAGEAIVLTVPGSERSYDLTGLKPGTEYNVPITGVKGGIISFPLSAIFTT
notes: as for B17
B30: SEQ ID NO 14 (designed binder, not shown: small tags and cut ends)
chain: MLPAPKNLVVSRVTEDSARLSWTAPDAAFDSFPIYYVENVVWGEAIVLTVPGSERSYDLTGLKPGTEYWEVIIGVKGGQCSRPLSAIFTT
notes: as for B17
B31: SEQ ID NO 27 (designed binder, not shown: small tags and cut ends)
chain: MLPAPKNLVVSRVTEDSARLSWTAPDAAFDSFRISYAETVRQGEAIVLTVPGSERSYDLTVETGYRNWVMILGVKGGPGSLPLSAIFTT
notes: as for B17

Positions count from the first letter of the chain named.

T2 sequence (P02786 189-383 limits assumed): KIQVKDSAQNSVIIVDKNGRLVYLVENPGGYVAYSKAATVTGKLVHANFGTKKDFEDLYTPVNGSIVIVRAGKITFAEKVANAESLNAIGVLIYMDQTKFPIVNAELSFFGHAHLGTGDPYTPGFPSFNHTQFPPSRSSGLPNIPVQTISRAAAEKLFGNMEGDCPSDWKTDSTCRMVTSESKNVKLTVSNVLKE

The target in one assay is T1, human CD71 extracellular domain (human, UniProt P02786 89-760, biotinylated).
T1 construct: extracellular domain; also called hCD71; huCD71 ECD
T1 sequence (P02786 other isoform, or with tags, fused parts or gaps): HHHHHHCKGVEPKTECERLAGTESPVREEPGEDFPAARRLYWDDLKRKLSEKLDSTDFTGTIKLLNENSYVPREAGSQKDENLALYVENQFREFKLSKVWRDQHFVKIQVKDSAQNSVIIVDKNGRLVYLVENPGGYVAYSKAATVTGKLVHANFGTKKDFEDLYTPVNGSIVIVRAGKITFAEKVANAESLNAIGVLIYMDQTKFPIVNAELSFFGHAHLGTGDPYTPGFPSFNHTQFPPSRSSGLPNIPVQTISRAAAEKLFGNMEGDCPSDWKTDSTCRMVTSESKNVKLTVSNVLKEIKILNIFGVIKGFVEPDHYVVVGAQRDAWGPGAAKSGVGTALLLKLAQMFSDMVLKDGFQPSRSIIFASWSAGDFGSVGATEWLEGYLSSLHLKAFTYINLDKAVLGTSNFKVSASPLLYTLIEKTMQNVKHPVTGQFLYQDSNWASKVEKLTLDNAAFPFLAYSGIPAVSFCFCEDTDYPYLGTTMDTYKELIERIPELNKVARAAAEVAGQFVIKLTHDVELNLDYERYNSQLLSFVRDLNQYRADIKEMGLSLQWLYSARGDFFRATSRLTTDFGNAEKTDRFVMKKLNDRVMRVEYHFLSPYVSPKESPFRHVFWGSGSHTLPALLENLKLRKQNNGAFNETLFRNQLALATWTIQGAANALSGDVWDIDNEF
Nature of the assay: solution ELISA screen, signal ratio to HSA control. (In an ELISA, binding on a coated surface is turned into a signal by an enzyme label.)
Consider B1, for which the “hCD71:HSA” value was 239 ratio.

With B2, the “hCD71:HSA” value was determined as 90.4 ratio.

For B3, the “hCD71:HSA” value is 59.1 ratio.

Take B4: the “hCD71:HSA” value was 13 ratio.

B5: the “hCD71:HSA” value was 26.8 ratio.

Consider B6, for which the “hCD71:HSA” value is 50.6 ratio.

Take B7: the “hCD71:HSA” value stood at 22.5 ratio.

As to B8, the “hCD71:HSA” value turned out to be 10.2 ratio.

B9: the “hCD71:HSA” value is 348 ratio.

Take B10: the “hCD71:HSA” value was found to be 22.6 ratio.

As to B11, the “hCD71:HSA” value is 38.8 ratio.

B12: the “hCD71:HSA” value came to 131 ratio.

Regarding B13, the “hCD71:HSA” value is 136 ratio.

On to B14, for which the “hCD71:HSA” value came to 135 ratio.

As for B15, the “hCD71:HSA” value worked out at 214 ratio.

B16: the “hCD71:HSA” value was determined as 117 ratio.

Another assay has as its target T2, CD71 apical domain (human, UniProt P02786 189-383, limits assumed).
T2 construct: domain: apical domain
Put plainly: solution ELISA screen, signal ratio to HSA control.
Take B1: the “apical domain:HSA” value is 435 ratio.

B2: the “apical domain:HSA” value amounted to 261 ratio.

Consider B3, for which the “apical domain:HSA” value turned out to be 373 ratio.

For B4, the “apical domain:HSA” value was found to be 143 ratio.

For B5, the “apical domain:HSA” value is 292 ratio.

As to B6, the “apical domain:HSA” value was found to be 363 ratio.

Consider B7, for which the “apical domain:HSA” value worked out at 177 ratio.

For the molecule B8, the “apical domain:HSA” value is 202 ratio.

B9: the “apical domain:HSA” value stood at 466 ratio.

Turning to B10, the “apical domain:HSA” value turned out to be 58.8 ratio.

For B11, the “apical domain:HSA” value was found to be 418 ratio.

B12: the “apical domain:HSA” value turned out to be 238 ratio.

With B13, the “apical domain:HSA” value turned out to be 261 ratio.

In the case of B14, the “apical domain:HSA” value turned out to be 400 ratio.

Turning to B15, the “apical domain:HSA” value came to 420 ratio.

B16: the “apical domain:HSA” value was determined as 190 ratio.

For another assay, the target named is T1, human CD71 extracellular domain. Nature of the assay: solution ELISA screen (luminescence).
In turn, B1 had an RLU of 4.06e+06 RLU.

For the molecule B2, the RLU is 2.02e+06 RLU.

B3 displayed an RLU of 828000 RLU.

In the case of B4, the RLU is 393000 RLU.

Consider B5, for which the RLU was determined as 467000 RLU.

B6 had an RLU of 660000 RLU.

As for B7, the RLU is 635000 RLU.

B8 showed an RLU of 144000 RLU.

For the molecule B9, the RLU was found to be 6.2e+06 RLU.

Regarding B10, the RLU is 2.74e+06 RLU.

Turning to B11, the RLU was found to be 460000 RLU.

The molecule B12 showed an RLU of 3.88e+06 RLU.

In the case of B13, the RLU is 3.55e+06 RLU.

For B14, the RLU was found to be 2.15e+06 RLU.

Molecule B15 gave an RLU of 3.48e+06 RLU.

For the molecule B16, the RLU came to 3.1e+06 RLU.

The target in a further assay is T2, CD71 apical domain. Nature of the assay: solution ELISA screen (luminescence).
The molecule B1 returned an RLU of 7.38e+06 RLU.

As for B2, the RLU was determined as 5.84e+06 RLU.

As for B3, the RLU worked out at 5.22e+06 RLU.

Molecule B4 returned an RLU of 4.3e+06 RLU.

B5 returned an RLU of 5.09e+06 RLU.

Take B6: the RLU worked out at 4.74e+06 RLU.

B7 yielded an RLU of 4.99e+06 RLU.

For B8, the RLU is 2.85e+06 RLU.

Take B9: the RLU was found to be 8.3e+06 RLU.

In turn, B10 had an RLU of 7.11e+06 RLU.

For B11, the RLU was found to be 4.95e+06 RLU.

In the case of B12, the RLU worked out at 7.04e+06 RLU.

For the molecule B13, the RLU was determined as 6.82e+06 RLU.

Take B14: the RLU came out at 6.38e+06 RLU.

For B15, the RLU is 6.81e+06 RLU.

In turn, B16 gave an RLU of 5.05e+06 RLU.

The target of a further assay is T3, recombinant biotinylated CD71 extracellular domain (Sino Biologics) with an N-terminal 6His tag (human, UniProt P02786 89-760, biotinylated (site not stated)).
T3 construct: extracellular domain; also called hCD71; huCD71 ECD
T3 sequence (P02786 other isoform, or with tags, fused parts or gaps): as above
Nature of the assay: primary solution ELISA screen, signal on hCD71 over HSA.
In the case of B17, the “hCD71:HSA” value stood at 117.

Regarding B18, the “hCD71:HSA” value came to 106.

Turning to B19, the “hCD71:HSA” value is 110.

As to B20, the “hCD71:HSA” value was found to be 85.

For B21, the “hCD71:HSA” value was determined as 147.

For B22, the “hCD71:HSA” value was 95.

B23: the “hCD71:HSA” value came out at 138.

For the molecule B24, the “hCD71:HSA” value came out at 374.

As for B25, the “hCD71:HSA” value turned out to be 79.

In the case of B26, the “hCD71:HSA” value amounted to 58.

For the molecule B27, the “hCD71:HSA” value is 14.

Turning to B28, the “hCD71:HSA” value came to 43.

With B29, the “hCD71:HSA” value is 105.

Regarding B30, the “hCD71:HSA” value was 1280.

B31: the “hCD71:HSA” value came to 127.

Another assay concerns the target T3, recombinant biotinylated CD71 …. Nature of the assay: primary solution ELISA screen.
Regarding B17, the RLU stood at 1.31e+06 RLU.

As for B18, the RLU was 1.99e+06 RLU.

For B19, the RLU was 1.39e+06 RLU.

In the case of B20, the RLU is 579000 RLU.

As to B21, the RLU was 957000 RLU.

As to B22, the RLU was 657000 RLU.

On to B23, for which the RLU was determined as 642000 RLU.

With B24, the RLU was 2.45e+06 RLU.

B25: the RLU was 408000 RLU.

Regarding B26, the RLU worked out at 222000 RLU.

With B27, the RLU amounted to 383000 RLU.

As to B28, the RLU was determined as 791000 RLU.

On to B29, for which the RLU was determined as 3.15e+06 RLU.

B30: the RLU was 1.4e+06 RLU.

As for B31, the RLU came to 297000 RLU.
